Laboratory results published in paper PMC3894748 (2013).

Target: actin (Homo sapiens, UniProt P60709)
Test: Ca2+-ATPase activity inhibition

B1: plasma membrane calcium pump (PMCA) (protein)
chain: MTNPSDRVLPANSMAESREGDFGCTVMELRKLMELRSRDALTQINVHYGGVQNLCSRLKTSPVEGLSGNPADLEKRRQVFGHNVIPPKKPKTFLELVWEALQDVTLIILEIAAIISLVLSFYRPAGEENELCGQVATTPEDENEAQAGWIEGAAILFSVIIVVLVTAFNDWSKEKQFRGLQCRIEQEQKFSIIRNGQLIQLPVAEIVVGDIAQVKYGDLLPADGILIQGNDLKIDESSLTGESDHVKKSLDKDPMLLSGTHVMEGSGRMVVTAVGVNSQTGIILTLLGVNEDDEGEKKKKGKKQGVPENRNKAKTQDGVALEIQPLNSQEGIDNEEKDKKAVKVPKKEKSVLQGKLTRLAVQIGKAGLLMSALTVFILILYFVIDNFVINRRPWLPECTPIYIQYFVKFFIIGITVLVVAVPEGLPLAVTISLAYSVKKMMKDNNLVRHLDACETMGNATAICSDKTGTLTMNRMTVVQAYIGGIHYRQIPSPDVFLPKVLDLIVNGISINSAYTSKILPPEKEGGLPRQVGNKTECALLGFVTDLKQDYQAVRNEVPEEKLYKVYTFNSVRKSMSTVIRNPNGGFRMYSKGASEIILRKCNRILDRKGEAVPFKNKDRDDMVRTVIEPMACDGLRTICIAYRDFDDTEPSWDNENEILTELTCIAVVGIEDPVRPEVPDAIAKCKQAGITVRMVTGDNINTARAIATKCGILTPGDDFLCLEGKEFNRLIRNEKGEVEQEKLDKIWPKLRVLARSSPTDKHTLVKGIIDSTVGEHRQVVAVTGDGTNDGPALKKADVGFAMGIAGTDVAKEASDIILTDDNFTSIVKAVMWGRNVYDSISKFLQFQLTVNVVAVIVAFTGACITQDSPLKAVQMLWVNLIMDTFASLALATEPPTESLLKRRPYGRNKPLISRTMMKNILGHAFYQLIVIFILVFAGEKFFDIDSGRKAPLHSPPSQHYTIVFNTFVLMQLFNEINSRKIHGEKNVFSGIYRNIIFCSVVLGTFICQIFIVEFGGKPFSCTSLSLSQWLWCLFIGIGELLWGQFISAIPTRSLKFLKEAGHGTTKEEITKDAEGLDEIDHAEMELRRGQILWFRGLNRIQTQIDVINTFQTGASFKGVLRRQNMGQHLDVKLVPSSSYIKVVKAFHSSLHESIQKPYNQKSIHSFMTHPEFAIEEELPRTPLLDEEEEENPDKASKFGTRVLLLDGEVTPYANTNNNAVDCNQVQLPQSDSSLQSLETSV
  Kd: 680 nM
